# According to paper PMC10786891, “Massively parallel profiling of RNA-targeting CRISPR-Cas13d”:
# T1: EsCas13d, nuclease-dead (Eubacterium siraeum, UniProt B0MS50, R295A;H300A;R849A;H854A)
# T1 sequence: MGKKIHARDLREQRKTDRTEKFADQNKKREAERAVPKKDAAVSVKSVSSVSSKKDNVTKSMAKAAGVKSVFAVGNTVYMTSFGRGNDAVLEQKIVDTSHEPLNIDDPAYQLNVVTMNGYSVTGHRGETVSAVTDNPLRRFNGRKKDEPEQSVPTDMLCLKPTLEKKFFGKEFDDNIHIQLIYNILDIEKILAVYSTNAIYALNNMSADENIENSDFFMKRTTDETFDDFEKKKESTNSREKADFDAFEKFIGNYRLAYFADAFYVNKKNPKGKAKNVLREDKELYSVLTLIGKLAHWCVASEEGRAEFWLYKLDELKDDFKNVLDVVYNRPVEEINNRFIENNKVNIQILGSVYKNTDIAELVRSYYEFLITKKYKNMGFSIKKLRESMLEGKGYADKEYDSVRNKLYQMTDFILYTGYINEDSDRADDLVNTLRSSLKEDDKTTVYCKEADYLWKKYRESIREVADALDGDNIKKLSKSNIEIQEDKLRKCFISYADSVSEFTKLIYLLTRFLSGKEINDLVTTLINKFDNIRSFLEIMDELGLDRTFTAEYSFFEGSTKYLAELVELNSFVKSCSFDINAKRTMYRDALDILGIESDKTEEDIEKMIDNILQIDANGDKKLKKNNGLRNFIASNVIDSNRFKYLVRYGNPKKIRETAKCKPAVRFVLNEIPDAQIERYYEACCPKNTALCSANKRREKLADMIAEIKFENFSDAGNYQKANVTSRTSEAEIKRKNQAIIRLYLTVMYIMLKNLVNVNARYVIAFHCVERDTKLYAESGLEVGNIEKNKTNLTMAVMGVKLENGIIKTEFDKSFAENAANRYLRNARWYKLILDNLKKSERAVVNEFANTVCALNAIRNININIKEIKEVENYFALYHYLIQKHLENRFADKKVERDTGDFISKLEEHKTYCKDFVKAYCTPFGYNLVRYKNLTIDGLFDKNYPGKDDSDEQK
# Biological target: T1, EsCas13d, nuclease-dead
# Test: crRNA (strand 1, pre-loaded); Mg2+; 40 mM Tris-HCl pH 7.5, 150 mM NaCl, 6 mM MgCl2, 1 mM DTT, 0.1% Tween-20, 0.2 mg/ml BSA; 25 C; 10 min per concentration, then washed
# Conditions: tags: His6-TwinStrep-SUMO cleaved; N-terminal SNAP kept (SNAP-Surface 488); label: 3' end held by stalled T7 RNA polymerase
row,Binder,Kd [nM]
1,target 1 MT 5'PFS UAG 3'PFS CAG (mixed) RNA 1: CACCCGUGCAAAAAUGCAGGGGUCUAAAACUGAGCGGAUAACCUCUCUAUGG RNA 2: GGGAAUGGAUCCACAUCUACGAAUUCUAGCCAUAGAGAGGUUAUCCGCUCACAGAGAUCGGAAGAGCACACGU,42.5 ± 13
2,target 1 MT 5'PFS GUA 3'PFS CUC (mixed) RNA 1: CACCCGUGCAAAAAUGCAGGGGUCUAAAACUGAGCGGAUAACCUCUCUAUGG RNA 2: GGGAAUGGAUCCACAUCUACGAAUUCGUACCAUAGAGAGGUUAUCCGCUCACUCAGAUCGGAAGAGCACACGU,13.8 ± 1.15
3,target 1 MT 5'PFS CCG 3'PFS AGU (mixed) RNA 1: CACCCGUGCAAAAAUGCAGGGGUCUAAAACUGAGCGGAUAACCUCUCUAUGG RNA 2: GGGAAUGGAUCCACAUCUACGAAUUCCCGCCAUAGAGAGGUUAUCCGCUCAAGUAGAUCGGAAGAGCACACGU,10 ± 4.5
4,target 1 MT 5'PFS GAA 3'PFS AGA (mixed) RNA 1: CACCCGUGCAAAAAUGCAGGGGUCUAAAACUGAGCGGAUAACCUCUCUAUGG RNA 2: GGGAAUGGAUCCACAUCUACGAAUUCGAACCAUAGAGAGGUUAUCCGCUCAAGAAGAUCGGAAGAGCACACGU,62 ± 21.5
5,target 1 MT 5'PFS CUG 3'PFS UCU (mixed) RNA 1: CACCCGUGCAAAAAUGCAGGGGUCUAAAACUGAGCGGAUAACCUCUCUAUGG RNA 2: GGGAAUGGAUCCACAUCUACGAAUUCCUGCCAUAGAGAGGUUAUCCGCUCAUCUAGAUCGGAAGAGCACACGU,3.55 ± 0.8
6,"target 1 insU 3' of 12,insA 3' of 7 (mixed) RNA 1: CACCCGUGCAAAAAUGCAGGGGUCUAAAACUGAGCGGAUAACCUCUCUAUGG RNA 2: GGGAAUGGAUCCACAUCUACGAAUUCGUACCAUAGAGAGGUUUAUCACGCUCACCGAGAUCGGAAGAGCACACGU",5.36 ± 0.2
7,target 1 MT 5'PFS GCG 3'PFS UAU (mixed) RNA 1: CACCCGUGCAAAAAUGCAGGGGUCUAAAACUGAGCGGAUAACCUCUCUAUGG RNA 2: GGGAAUGGAUCCACAUCUACGAAUUCGCGCCAUAGAGAGGUUAUCCGCUCAUAUAGAUCGGAAGAGCACACGU,12.2 ± 2.95
8,target 1 MT 5'PFS GUA 3'PFS CUU (mixed) RNA 1: CACCCGUGCAAAAAUGCAGGGGUCUAAAACUGAGCGGAUAACCUCUCUAUGG RNA 2: GGGAAUGGAUCCACAUCUACGAAUUCGUACCAUAGAGAGGUUAUCCGCUCACUUAGAUCGGAAGAGCACACGU,8.52 ± 0.595
9,target 1 MT 5'PFS AAU 3'PFS ACA (mixed) RNA 1: CACCCGUGCAAAAAUGCAGGGGUCUAAAACUGAGCGGAUAACCUCUCUAUGG RNA 2: GGGAAUGGAUCCACAUCUACGAAUUCAAUCCAUAGAGAGGUUAUCCGCUCAACAAGAUCGGAAGAGCACACGU,~32
10,target 1 MT 5'PFS GGC 3'PFS CGU (mixed) RNA 1: CACCCGUGCAAAAAUGCAGGGGUCUAAAACUGAGCGGAUAACCUCUCUAUGG RNA 2: GGGAAUGGAUCCACAUCUACGAAUUCGGCCCAUAGAGAGGUUAUCCGCUCACGUAGAUCGGAAGAGCACACGU,10.7 ± 1.75
11,target 1 MT 5'PFS ACG 3'PFS UGA (mixed) RNA 1: CACCCGUGCAAAAAUGCAGGGGUCUAAAACUGAGCGGAUAACCUCUCUAUGG RNA 2: GGGAAUGGAUCCACAUCUACGAAUUCACGCCAUAGAGAGGUUAUCCGCUCAUGAAGAUCGGAAGAGCACACGU,20.5 ± 7.5
12,target 1 MT 5'PFS GUA 3'PFS CUA (mixed) RNA 1: CACCCGUGCAAAAAUGCAGGGGUCUAAAACUGAGCGGAUAACCUCUCUAUGG RNA 2: GGGAAUGGAUCCACAUCUACGAAUUCGUACCAUAGAGAGGUUAUCCGCUCACUAAGAUCGGAAGAGCACACGU,10.2 ± 0.7
13,"target 1 insC 3' of 11,insA 3' of 5 (mixed) RNA 1: CACCCGUGCAAAAAUGCAGGGGUCUAAAACUGAGCGGAUAACCUCUCUAUGG RNA 2: GGGAAUGGAUCCACAUCUACGAAUUCGUACCAUAGAGAGGUCUAUCCGACUCACCGAGAUCGGAAGAGCACACGU",7.9 ± 0.8
14,target 1 MT 5'PFS GCG 3'PFS UAG (mixed) RNA 1: CACCCGUGCAAAAAUGCAGGGGUCUAAAACUGAGCGGAUAACCUCUCUAUGG RNA 2: GGGAAUGGAUCCACAUCUACGAAUUCGCGCCAUAGAGAGGUUAUCCGCUCAUAGAGAUCGGAAGAGCACACGU,17.5 ± 4
15,target 1 MT 5'PFS GUG 3'PFS GUG (mixed) RNA 1: CACCCGUGCAAAAAUGCAGGGGUCUAAAACUGAGCGGAUAACCUCUCUAUGG RNA 2: GGGAAUGGAUCCACAUCUACGAAUUCGUGCCAUAGAGAGGUUAUCCGCUCAGUGAGAUCGGAAGAGCACACGU,8.9 ± 0.55
16,target 1 MT 5'PFS GUA 3'PFS CUG (mixed) RNA 1: CACCCGUGCAAAAAUGCAGGGGUCUAAAACUGAGCGGAUAACCUCUCUAUGG RNA 2: GGGAAUGGAUCCACAUCUACGAAUUCGUACCAUAGAGAGGUUAUCCGCUCACUGAGAUCGGAAGAGCACACGU,7.89 ± 0.47
17,target 1 MT 5'PFS GAA 3'PFS AGG (mixed) RNA 1: CACCCGUGCAAAAAUGCAGGGGUCUAAAACUGAGCGGAUAACCUCUCUAUGG RNA 2: GGGAAUGGAUCCACAUCUACGAAUUCGAACCAUAGAGAGGUUAUCCGCUCAAGGAGAUCGGAAGAGCACACGU,81 ± 34
18,target 1 MT 5'PFS CCG 3'PFS AGA (mixed) RNA 1: CACCCGUGCAAAAAUGCAGGGGUCUAAAACUGAGCGGAUAACCUCUCUAUGG RNA 2: GGGAAUGGAUCCACAUCUACGAAUUCCCGCCAUAGAGAGGUUAUCCGCUCAAGAAGAUCGGAAGAGCACACGU,4.45 ± 1.5
19,target 1 MT 5'PFS UAG 3'PFS CAU (mixed) RNA 1: CACCCGUGCAAAAAUGCAGGGGUCUAAAACUGAGCGGAUAACCUCUCUAUGG RNA 2: GGGAAUGGAUCCACAUCUACGAAUUCUAGCCAUAGAGAGGUUAUCCGCUCACAUAGAUCGGAAGAGCACACGU,65 ± 21
20,target 1 MT 5'PFS GUG 3'PFS GUC (mixed) RNA 1: CACCCGUGCAAAAAUGCAGGGGUCUAAAACUGAGCGGAUAACCUCUCUAUGG RNA 2: GGGAAUGGAUCCACAUCUACGAAUUCGUGCCAUAGAGAGGUUAUCCGCUCAGUCAGAUCGGAAGAGCACACGU,17 ± 2.6
21,target 1 MT 5'PFS ACG 3'PFS UGU (mixed) RNA 1: CACCCGUGCAAAAAUGCAGGGGUCUAAAACUGAGCGGAUAACCUCUCUAUGG RNA 2: GGGAAUGGAUCCACAUCUACGAAUUCACGCCAUAGAGAGGUUAUCCGCUCAUGUAGAUCGGAAGAGCACACGU,~74.5
22,target 1 MT 5'PFS UAA 3'PFS CGG (mixed) RNA 1: CACCCGUGCAAAAAUGCAGGGGUCUAAAACUGAGCGGAUAACCUCUCUAUGG RNA 2: GGGAAUGGAUCCACAUCUACGAAUUCUAACCAUAGAGAGGUUAUCCGCUCACGGAGAUCGGAAGAGCACACGU,55.5 ± 17
23,target 1 MT 5'PFS AAU 3'PFS ACG (mixed) RNA 1: CACCCGUGCAAAAAUGCAGGGGUCUAAAACUGAGCGGAUAACCUCUCUAUGG RNA 2: GGGAAUGGAUCCACAUCUACGAAUUCAAUCCAUAGAGAGGUUAUCCGCUCAACGAGAUCGGAAGAGCACACGU,47 ± 13
24,target 1 MT 5'PFS UAA 3'PFS CGA (mixed) RNA 1: CACCCGUGCAAAAAUGCAGGGGUCUAAAACUGAGCGGAUAACCUCUCUAUGG RNA 2: GGGAAUGGAUCCACAUCUACGAAUUCUAACCAUAGAGAGGUUAUCCGCUCACGAAGAUCGGAAGAGCACACGU,50 ± 23
25,target 1 MT 5'PFS GCG 3'PFS UAA (mixed) RNA 1: CACCCGUGCAAAAAUGCAGGGGUCUAAAACUGAGCGGAUAACCUCUCUAUGG RNA 2: GGGAAUGGAUCCACAUCUACGAAUUCGCGCCAUAGAGAGGUUAUCCGCUCAUAAAGAUCGGAAGAGCACACGU,10.6 ± 1.6
26,target 1 MT 5'PFS ACC 3'PFS CCG (mixed) RNA 1: CACCCGUGCAAAAAUGCAGGGGUCUAAAACUGAGCGGAUAACCUCUCUAUGG RNA 2: GGGAAUGGAUCCACAUCUACGAAUUCACCCCAUAGAGAGGUUAUCCGCUCACCGAGAUCGGAAGAGCACACGU,~18.5
27,target 1 MT 5'PFS GCG 3'PFS UAC (mixed) RNA 1: CACCCGUGCAAAAAUGCAGGGGUCUAAAACUGAGCGGAUAACCUCUCUAUGG RNA 2: GGGAAUGGAUCCACAUCUACGAAUUCGCGCCAUAGAGAGGUUAUCCGCUCAUACAGAUCGGAAGAGCACACGU,13.2 ± 2.3
28,target 1 MT 5'PFS GGC 3'PFS CGG (mixed) RNA 1: CACCCGUGCAAAAAUGCAGGGGUCUAAAACUGAGCGGAUAACCUCUCUAUGG RNA 2: GGGAAUGGAUCCACAUCUACGAAUUCGGCCCAUAGAGAGGUUAUCCGCUCACGGAGAUCGGAAGAGCACACGU,27.5 ± 5.5
